Experimental data from paper PMC9396414 (2022).

Molecular target: RbPLX7
Assay: SPR

Kd: 346 pM
B1: biotinylated human Plexin-B1 (20–535)-Avi-6xHis (domain or fragment)
chain: LQPLPPTAFTPNGTYLQHLARDPTSGTLYLGATNFLFQLSPGLQLEATVSTGPVLDSRDCLPPVMPDECPQAQPTNNPNQLLLVSPGALVVCGSVHQGVCEQRRLGQLEQLLLRPERPGDTQYVAANDPAVSTVGLVAQGLAGEPLLFVGRGYTSRGVGGGIPPITTRALWPPDPQAAFSYEETAKLAVGRLSEYSHHFVSAFARGASAYFLFLRRDLQAQSRAFRAYVSRVCLRDQHYYSYVELPLACEGGRYGLIQAAAVATSREVAHGEVLFAAFSSAAPPTVGRPPSAAAGASGASALCAFPLDEVDRLANRTRDACYTREGRAEDGTEVAYIEYDVNSDCAQLPVDTLDAYPCGSDHTPSPMASRVPLEATPILEWPGIQLTAVAVTMEDGHTIAFLGDSQGQLHRVYLGPGSDGHPYSTQSIQQGSAVSRDLTFDGTFEHLYVMTQSTLLKVPVASCAQHLDCASCLAHRDPYCGWCVLLGRCSRRSECSRGQGPEQWLWSFQPELGCLQ
modifications: biotin on the Avi-tag (in vitro, BirA enzyme)
